Results on one substance are retold here after patent US20200095333A1.

In this experiment the target is human serum albumin (HSA) (human) (UniProt P02768). The experiment can be described thus: HSA binding class, Table 23.

On to “ABD L64G/I65A/V71A (from UniProt P19909 254-299)”, for which the HSA binding was under 0.1.
